Laboratory results from paper PMC5028891 (Scientific Reports, 2016).

B1: unnamed (parent)
chain 1: MASMGLQVMGIALAVLGWLAVMLCCALPMWRVTAFIGSNIVTSQTIWEGLWMNCVVQSTGQMQCKVYDSLLALPQDLQAARALVIISIIVAALGVLLSVVGGKCTNCLEDESAKAKTMIVAGVVFLLAGLMVIVPVSWTAHNIIQDFYNPLVASGQKREMGASLYVGWAASGLLLLGGGLLCCNCPPRTDKPYSAKYSAARSAAASNYV
chain 2: RCVLTVPSTDIEKEILDLAAATERLNLTDALNSNPAGNLYDWRSSNSYPWTQKLNLHLTITATGQKYRILASKIVDFNIYSNNFNNLVKLEQSLGDGVKDHYVDISLDAGQYVLVMKANSSYSGNYPYSILFQKF

Variants of: B1
Assay: pull-down
Conditions: with partner chain of the complex shown; n = 4; parent: 1; read off a plot

Variant | ratio to parent
chain 1 MASMGLQVMGIALAVLGWLAVMLCCALPMWRVTAFIGSNDVTSQTIWEGLWMNCVVQSTGQMQCKVYDSLLALPQDLQAARALVIISIIVAALGVLLSVVGGKCTNCLEDESAKAKTMIVAGVVFLLAGLMVIVPVSWTAHNIIQDFYNPLVASGQKREMGASLYVGWAASGLLLLGGGLLCCNCPPRTDKPYSAKYSAARSAAASNYV [chain 1 I40D] | 0.21
chain 1 MASMGLQVMGIALAVLGWLAVMLCCALPMWRVTAFIGSNAVTSQTIWEGLWMNCVVQSTGQMQCKVYDSLLALPQDLQAARALVIISIIVAALGVLLSVVGGKCTNCLEDESAKAKTMIVAGVVFLLAGLMVIVPVSWTAHNIIQDFYNPLVASGQKREMGASLYVGWAASGLLLLGGGLLCCNCPPRTDKPYSAKYSAARSAAASNYV [chain 1 I40A] | 1.1
